Source: publication PMC5847591

Target: NY-ESO-1_(60–72)–HLA-B*07:02 complex (human)
Assay: SPR

Chain of KFJ4 TCR, soluble ectodomain (TRAV13-1 α-chain) (P01848 whole entry, looked up, the tested form may be a part): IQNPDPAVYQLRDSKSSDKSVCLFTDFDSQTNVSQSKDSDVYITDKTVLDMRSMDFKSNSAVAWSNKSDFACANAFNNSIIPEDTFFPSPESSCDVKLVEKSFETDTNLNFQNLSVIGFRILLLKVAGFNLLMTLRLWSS
Chain of KFJ15 TCR, soluble ectodomain (P01848 whole entry, looked up, the tested form may be a part): as above

Row | Kd [µM] | koff [s⁻¹] | Substance
1 | 52.1 | 0.12 | KFJ4 TCR, soluble ectodomain (TRAV13-1 α-chain) (from UniProt P01848)
2 | 41.5 | – | KFJ15 TCR, soluble ectodomain (from UniProt P01848)
3 | 40.6 | 0.109 | KFJ37 TCR, soluble ectodomain (from UniProt A0A0B4J268 18-107; A0A0B4J1U6 20-113)
